Laboratory results published in patent publication US20210113678A1 (ENTEROME S A, published 2021).

Key:
[1] = molecular target: T1, HLA-A*0201 molecule on human T2 cells (human); experiment: T2 cells expressing HLA-A*0201, anti-HLA-A2-PE, FACS
T1 construct: read out with anti-HLA-A2 antibody BB7.2-PE; also called HLA-A2

[2] = molecular target: T1, HLA-A*0201 molecule on human T2 cells; experiment: as above; remark: listed apart in the source
[3] = molecular target: T2, HLA-A*0201 molecule expressed by the human tumoral cell T2 (human); experiment: T2 cell HLA-A2 stabilisation assay, flow cytometry with anti-HLA-A2 BB7.2-PE
T2 construct: MHC class I on T2 cells; The tested peptide is added from outside; Surface HLA-A2 is read with anti-HLA-A2 antibody BB7.2-PE; also called HLA-A2

| Binder | mean relative fluorescence intensity at 1.5625 µM peptide [1] | mean relative fluorescence intensity at 3.125 µM peptide [1] | mean relative fluorescence intensity at 6.25 µM peptide [1] | mean relative fluorescence intensity at 25 µM peptide [1] | mean relative fluorescence intensity at 50 µM peptide [1] | mean relative fluorescence intensity at 100 µM peptide [1] | Concentration of peptide that induces 20% of HLA-A2 expression [2] [µM] | In vitro binding affinity (relative to reference peptide HIV pol 589-597) [2] | binding result [3] |
| --- | --- | --- | --- | --- | --- | --- | --- | --- | --- |
| LLLSAALSA (Fragment of human CHI3L1) [CHI3L1H] | -1.9 % of HIV peptide | 1 % of HIV peptide | 4.4 % of HIV peptide | 4.9 % of HIV peptide | 14.5 % of HIV peptide | 11.2 % of HIV peptide |  |  |  |
| LLLSAALSV [CHI3L1B] | 13.5 % of HIV peptide | 23.9 % of HIV peptide | 44 % of HIV peptide | 45.3 % of HIV peptide | 85 % of HIV peptide | 58.9 % of HIV peptide | 3.6 | 0.9 |  |
| ILDEAYVRV [EGFR-B] | 12.7 % of HIV peptide | 22.7 % of HIV peptide | 29.2 % of HIV peptide | 53.2 % of HIV peptide | 66.7 % of HIV peptide | 70.3 % of HIV peptide | 3.1 | 0.2 |  |
| VLEELLWFI (Fragment of human TYMS) [TYMS-H] | 8.6 % of HIV peptide | 15.3 % of HIV peptide | 26.6 % of HIV peptide | 38.1 % of HIV peptide | 40.4 % of HIV peptide | 50.2 % of HIV peptide | 4.1 | 0.3 |  |
| LMLGEFLKL [peptide 2M] |  |  |  |  |  |  |  |  | binds |
| FMLGEFLKL [BIRC5-B1] |  |  |  |  |  |  |  |  | binds |
| FMVEDETVL (Fragment of human EZH2) [EZH2-H] | 0 % of HIV peptide | 0.7 % of HIV peptide | 10.6 % of HIV peptide | 40.7 % of HIV peptide | 66 % of HIV peptide | 95.4 % of HIV peptide | 13.3 | 1.1 |  |
| RLSSYLVEI [FOXM1-B] | 0 % of HIV peptide | 0 % of HIV peptide | 0 % of HIV peptide | 7.6 % of HIV peptide | 21.3 % of HIV peptide | 47.5 % of HIV peptide | 46.7 | 4.6 |  |
| FLDSLGFST [TYMS-H2] | 1.6 % of HIV peptide | 4.5 % of HIV peptide | 6.1 % of HIV peptide | 32.5 % of HIV peptide | 37.2 % of HIV peptide | 50.6 % of HIV peptide | 9.5 | 0.8 |  |
| RVSSYLVPI (Fragment of human FOXM1) [FOXM1-H] | 0 % of HIV peptide | 0 % of HIV peptide | 0 % of HIV peptide | 10.5 % of HIV peptide | 30.7 % of HIV peptide | 83.8 % of HIV peptide | 37.6 | 3.7 |  |
| SMFRVLIGT (Fragment of human EZH2) [EZH2-H2] | 0 % of HIV peptide | 0 % of HIV peptide | 0 % of HIV peptide | 13.3 % of HIV peptide |  | 78.2 % of HIV peptide | 39.2 | 7.8 |  |
| LMDLSTTPL (Fragment of human FOXM1) [FOXM1-H2] | 5.3 % of HIV peptide | 0.9 % of HIV peptide | 19.7 % of HIV peptide | 65.4 % of HIV peptide | 62.5 % of HIV peptide | 77.6 % of HIV peptide | 12.6 | 2.5 |  |
| GLLGEFLQI (also called B1RC5-B3) [BIRC5-B3] | 9.4 % of HIV peptide | 8.9 % of HIV peptide |  | 20.9 % of HIV peptide | 29.8 % of HIV peptide | 35 % of HIV peptide | 22.9 | 7 |  |
| FLPFGFILV [IL13RA2-B] |  |  |  |  |  |  |  |  | binds |
| FLPFGFILM [peptide 1F9M] |  |  |  |  |  |  |  |  | binds |
| ALPFGFILV [comparative peptide 1A9V] |  |  |  |  |  |  |  |  | binds |

Results, then the binder that gave them:

| mean relative fluorescence intensity at 1.5625 µM peptide [1] | mean relative fluorescence intensity at 3.125 µM peptide [1] | mean relative fluorescence intensity at 6.25 µM peptide [1] | mean relative fluorescence intensity at 25 µM peptide [1] | mean relative fluorescence intensity at 50 µM peptide [1] | mean relative fluorescence intensity at 100 µM peptide [1] | Concentration of peptide that induces 20% of HLA-A2 expression [2] [µM] | In vitro binding affinity (relative to reference peptide HIV pol 589-597) [2] | binding result [3] | Binder |
| --- | --- | --- | --- | --- | --- | --- | --- | --- | --- |
|  | 6.6 % of HIV peptide | 9 % of HIV peptide | 29.6 % of HIV peptide | 54.4 % of HIV peptide | 58 % of HIV peptide | 14.7 | 4.5 |  | YTLGEFLYI [BIRC5-B2] |
|  |  |  |  |  |  |  |  | binds | ILPFGFILA [peptide 1I9A] |
| 7.2 % of HIV peptide | 12.7 % of HIV peptide | 33.5 % of HIV peptide | 98.2 % of HIV peptide | 91.5 % of HIV peptide | 105 % of HIV peptide | 6.7 | 1.3 |  | LMDLSTTEV [FOXM1-B2] |
|  |  |  |  |  |  |  |  | binds | LTLGEFLKL [BIRC5-H] |
| 10.7 % of HIV peptide | 21.5 % of HIV peptide | 27.5 % of HIV peptide | 61.1 % of HIV peptide | 62 % of HIV peptide | 71.3 % of HIV peptide | 2.7 | 0.2 |  | FLDSLGFSL [TYMS-B2] |
| 15.9 % of HIV peptide | 30.4 % of HIV peptide | 36 % of HIV peptide | 49.3 % of HIV peptide | 65.7 % of HIV peptide | 80.9 % of HIV peptide | 1.1 | 0.1 |  | SMEELLWFV [TYMS-B] |
| 3 % of HIV peptide | 3.7 % of HIV peptide | 9.6 % of HIV peptide | 11.2 % of HIV peptide | 14.2 % of HIV peptide | 26.5 % of HIV peptide |  |  |  | WLPFGFILI (Fragment of human IL13RA2) [IL13RA2-H] |
| 2.5 % of HIV peptide | 14.3 % of HIV peptide | 30.2 % of HIV peptide | 36.7 % of HIV peptide | 108 % of HIV peptide | 76.9 % of HIV peptide | 8.6 | 2.2 |  | YLLSAALTI [CHI3L1B3] |
| 0 % of HIV peptide | 0 % of HIV peptide | 0.5 % of HIV peptide | 74.8 % of HIV peptide |  | 112 % of HIV peptide | 8.3 | 1.7 |  | AVFRVLIPV [EZH2-B2] |
| 5.5 % of HIV peptide | 14.4 % of HIV peptide | 28.9 % of HIV peptide | 53.9 % of HIV peptide | 82.6 % of HIV peptide | 94.9 % of HIV peptide | 8.8 | 0.7 |  | FLVEDETVI [EZH2-B] |
